What was measured:
[1] = target: p85α nSH2, 325-430 (UniProt P27986); experiment: fluorescence polarization titration; conditions: reference: unphosphorylated p85β peptide; sites Y599
[2] = target: p85β nSH2, 312-425 (UniProt O08908); experiment: fluorescence polarization titration; conditions: reference: unphosphorylated p85β peptide; sites Y599
p85β nSH2, 312-425, sequence (O08908 whole entry, looked up, tested part not stated): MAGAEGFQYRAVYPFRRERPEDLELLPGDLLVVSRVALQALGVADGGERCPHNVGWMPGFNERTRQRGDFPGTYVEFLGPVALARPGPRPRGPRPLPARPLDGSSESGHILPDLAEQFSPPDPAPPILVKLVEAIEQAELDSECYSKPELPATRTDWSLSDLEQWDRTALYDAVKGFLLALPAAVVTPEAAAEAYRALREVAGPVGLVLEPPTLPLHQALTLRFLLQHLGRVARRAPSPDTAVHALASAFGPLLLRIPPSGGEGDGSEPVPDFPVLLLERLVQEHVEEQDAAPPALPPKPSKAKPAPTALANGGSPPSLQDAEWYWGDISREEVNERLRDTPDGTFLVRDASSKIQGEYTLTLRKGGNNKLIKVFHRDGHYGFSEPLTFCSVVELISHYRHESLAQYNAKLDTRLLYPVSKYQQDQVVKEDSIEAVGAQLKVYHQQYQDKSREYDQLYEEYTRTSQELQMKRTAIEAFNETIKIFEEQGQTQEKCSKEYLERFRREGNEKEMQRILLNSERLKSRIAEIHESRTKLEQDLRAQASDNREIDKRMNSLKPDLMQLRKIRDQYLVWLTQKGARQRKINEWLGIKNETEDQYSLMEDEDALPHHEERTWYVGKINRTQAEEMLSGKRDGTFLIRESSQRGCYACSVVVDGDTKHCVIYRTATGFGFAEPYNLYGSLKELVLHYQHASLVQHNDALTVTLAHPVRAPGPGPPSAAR

p85β, sequence (O08908 312-425, change not shown): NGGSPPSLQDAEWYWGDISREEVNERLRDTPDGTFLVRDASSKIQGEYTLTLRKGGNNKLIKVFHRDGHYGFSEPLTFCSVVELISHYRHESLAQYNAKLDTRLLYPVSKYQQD
p85α nSH2, 325-430, sequence (P27986 whole entry, looked up, tested part not stated): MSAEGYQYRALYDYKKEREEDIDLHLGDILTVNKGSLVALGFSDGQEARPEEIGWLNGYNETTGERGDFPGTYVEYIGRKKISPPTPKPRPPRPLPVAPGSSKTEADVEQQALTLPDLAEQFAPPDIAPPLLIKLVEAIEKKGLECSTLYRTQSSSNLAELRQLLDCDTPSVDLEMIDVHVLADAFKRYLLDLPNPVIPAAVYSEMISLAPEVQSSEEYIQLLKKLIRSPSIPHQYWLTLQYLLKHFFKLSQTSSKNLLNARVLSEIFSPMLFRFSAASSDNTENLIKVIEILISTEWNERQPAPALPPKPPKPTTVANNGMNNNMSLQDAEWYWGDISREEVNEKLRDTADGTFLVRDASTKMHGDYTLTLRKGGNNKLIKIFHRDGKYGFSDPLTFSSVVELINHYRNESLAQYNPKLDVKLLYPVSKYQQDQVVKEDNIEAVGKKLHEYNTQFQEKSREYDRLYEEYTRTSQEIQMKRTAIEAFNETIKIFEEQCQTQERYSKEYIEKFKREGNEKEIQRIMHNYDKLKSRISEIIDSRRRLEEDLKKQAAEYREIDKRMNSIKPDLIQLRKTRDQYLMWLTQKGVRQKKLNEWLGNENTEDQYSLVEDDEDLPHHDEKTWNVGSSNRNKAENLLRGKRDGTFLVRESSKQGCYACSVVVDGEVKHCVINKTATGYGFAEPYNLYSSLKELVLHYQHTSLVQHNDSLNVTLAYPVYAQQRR

- binding against the reference [1]: gained
- binding against the reference [2]: gained
Substance: p85β (from UniProt O08908) phospho-p85β peptide

Reference: doi:10.1101/791277
